Test results published in CN112538116A (DONGDA BIOTECHNOLOGY SUZHOU CO LTD, dated 2021).

B1: 抗人4-1BB杂交瘤抗体3F10 (antibody, V domains shown)
VH: QVQLQQSGAELVRPGASVKISCKAFGFTFTHHHINWVKQRPGQGLDWIGYINPYNDYSIYNQKFEGKATLTVDKSSSTAYMELSRLTSDDSAVYFCARGGLGRGYFDYWGQGTTLTVSS
VL: DIVMTQSTAIMSASLGEKVTMTCRASSSVTSSYLHWYQQKSGASPKIWISSTSNLASGVPVRFSGSGSGTSYSLTISSVEAEDAATYYCQQYSGNPYTFGGGTKLEIK
notes: Mouse hybridoma antibody purified on Protein A
B2: 抗人4-1BB杂交瘤抗体8H8 (antibody, V domains shown)
VH: QIQLVQSGPELKKPGETVKISCKASGYTFSNYGMNWVKQAPGKGLKWMGWINTHTGEPTYADEFKGRFAFSLETSVSTAYLQINNLKNEDTATYFCARVLTMVMDYWGQGTSVTVSS
VL: DIVLTQSPASLAVSLGQRATISCRASEIIDGSGNSFVHWYQQKPGQPPKLLIYRTSTLESGIPARFSGSGSRTDFTLTINPVEADDVATYSCLQTVEDPWTFGGGTKLEIK
notes: as for B1
B3: 抗人4-1BB杂交瘤抗体8A8 (antibody, V domains shown)
VH: QVQLKQSGPGLVQPSQSLSITCTVSGFSLTNYGVHWVRQSPGKGLEWLGAIWSGGNTDYSAAFMSRVTINKDNSKSQVFFKMNSLRPDDTAIYYCARNPYYTNVMDYWGQGTSVTVSS
VL: DIQMTQSPASLSASVGETVTITCRASGNIGNFLAWYQQKQGKSPQLLVYNGETLADGVPSRFSGSGSGTQYSLKINSLQPEDFGSYYCQHFWSTPWTFGGGTKLEIK
notes: as for B1
B4: 抗人4-1BB杂交瘤抗体1A2 (antibody, V domains shown)
VH: EAQLQQSGAELVKPGASVKLSCTASGFNIKDTYMNWMKQRPEQGLEWIGRIAPANGNTKYAPQFQDKATITADTSSNTANLQLSSLTSEDTAVYYCARSYGSNFFDYWGQGTALTVSS
VL: EIQLTQSPASLAVSLGQRATISCKSSQSVDNYDNSFMHWYQQKPGQPPKLLIKRASNLETGVPARFSGSGSRTDFTLNIHPVEEEDTATYFCQQSVENPFTFGSGTKVELK
notes: as for B1
B5: 抗人4-1BB人源化抗体3A11 (antibody, V domains shown)
VH: EVQLVESGGGLVKPGGSLRLSCAASGFIFNTNAMNWVRQAPGKGLEWIARIRSKINNYATYYADSVKDRFTISRDDSKNTLYLQMNSLKTEDTAVYYCNWDEAYWGQGTLVTVSS
VL: DIQMTQSPSSLSASVGDRVTITCKASDHINNWLAWYQQKPGKAPKLLIFGATSLETGVPSRFSGSASGNDYTLTISSLQPEDFATYYCQQYWSIPYTFGQGTKLEIK
notes: Humanised antibody expressed in 293 cells, purified on Protein A, captured by anti-human IgG in Biacore; also called hu3A11
B6: 抗人4-1BB杂交瘤抗体3A11 (antibody, V domains shown)
VH: EVQLVETGGGLVQPNGSLKLSCAASGFIFNTNAMNWVRQAPGKGLEWIARIRSKINNYATYYADSVKDRFTISRDDSQSMLYLQMNNLKTEDTGMYYCNWDEAYWGQGTLVTVSA
VL: DIQMTQSSSYLSVSLGGRVTVTCKASDHINNWLAWYQQKPGNAPRLLIFGATSLETGVPSRFSGSASGNDYTLTITSLQTEDVATYYCQQYWSIPYTFGGGTKLEIK
notes: as for B1
B7: 抗人4-1BB人源化抗体8H8 (antibody, V domains shown)
VH: QIQLVQSGSELKKPGASVKVSCKASGYTFSNYGMNWVRQAPGQGLEWMGWINTHTGEPTYADEFKGRFVFSLDTSVSTAYLQISSLKAEDTAVYYCARVLTMVMDYWGQGTLVTVSS
VL: DIVLTQSPDSLAVSLGERATINCRASEIIDGSGNSFVHWYQQKPGQPPKLLIYRTSTLESGVPDRFSGSGSRTDFTLTISSLQAEDVAVYYCLQTVEDPWTFGGGTKVEIK
notes: Humanised antibody expressed in 293 cells, purified on Protein A, captured by anti-human IgG in Biacore; also called hu8H8
B8: 抗人4-1BB杂交瘤抗体2F10 (antibody, V domains shown)
VH: QVQLQQSGAALVKPGASVKLSCTASGFNIEDTYLNWVKQRPEQGLEWIGKIYPANGDTKYDPKFQGKATITAETPSNKAYLQLSSLTSEDTAVYYCTRGYGSNFFDCWGQGTSLTVSS
VL: DIVLTQSPASLAVALGQRATISCRASESVDSYDNSFMHWYQQKVGQPPKLLIYRASNLESGLPARFSGSGSRTDFTLTINPVEADDVATYYCQQSNEDPYTFGGGTKLEII
notes: as for B1
B9: 抗人4-1BB杂交瘤抗体8E9 (antibody, V domains shown)
VH: QAQLQQSGPELVRPGTSVKMSCKTSGYSFTGYWMHWMKQRPGQGLEWIGMIDPSNSDTRLNQKFKDKATLNVDKSSNTAYMDFSSLTSEDSAVYYCARWRYYGYDGIAYWGQGTLVTVSA
VL: DIVMTQSPSSLTVTAGEKVTVSCKSSQSLLNSGNQRNYLTWYQQKPGQPPKLLIYWASTRESGVPDHFTGSGSGTDFTLTISSVQAEDLAVYYCQNDYTYPFTFGGGTKLEIK
notes: as for B1
B10: 抗人4-1BB人源化抗体10B2 (antibody, V domains shown)
VH: QVQLVESGGGVVQPGRSLRLSCAASGFTFSTFGLHWVRQAPGKGLEWVAYISSDSNTIYYADTMKGRFTISRDNSKNTLYLQMNSLRAEDTAVYYCTRGDPAYYGYGGRFVYALDFWGQGTLVTVSS
VL: DVVVTQTPLSLSVTPGQPASISCRSSQSLTNSYGHTYLSWYLQKPGQSPQLLIYGISIRFSGVPDRFSGSGSGTDFTLKISRVEAEDVGVYYCLQGTHQPWTFGGGTKVEIK
notes: Humanised antibody expressed in 293 cells, purified on Protein A, captured by anti-human IgG in Biacore; also called hu10B2
B11: 抗人4-1BB杂交瘤抗体10B2 (antibody, V domains shown)
VH: DVQLVESGGGLVQPGGSRKLSCAASGFTFSTFGLHWVRQAPEKGLEWVAYISSDSNTIYYADTMKGRFTISRDNPKNTLFLQLTSLRSEDTAVYYCTRGDPAYYGYGGRFVYALDFWGQGTSVAVSS
VL: DVVVTQTPLSLPVSFGDQVSISCRSSQSLTNSYGHTYLSWYLHKPGQSPQLLIYGISIRFSGVPDRFSGSGSGTDFTLRISTVKPEDLGMYYCLQGTHQPWTFGGGTKLEIK
notes: as for B1
B12: 抗人4-1BB人源化抗体1A2 (antibody, V domains shown)
VH: EAQLVQSGAEVKKPGATVKISCKVSGFNIKDTYMNWVQQAPGKGLEWIGRIAPANGNTKYAPQFQDRATITADTSTDTAYMELSSLRSEDTAVYYCARSYGSNFFDYWGQGTLVTVSS
VL: EIVLTQSPATLSLSPGERATLSCKSSQSVDNYDNSFMHWYQQKPGQAPRLLIYRASNLETGIPARFSGSGSRTDFTLTISSLEPEDFAVYYCQQSVENPFTFGQGTKLEIK
notes: Humanised antibody expressed in 293 cells, purified on Protein A, captured by anti-human IgG in Biacore; also called hu1A2

Molecular target: T1, 人4-1BB on Jurkat-4-1BB细胞 (human, UniProt Q07011 24-255)
T1 construct: whole, on cells; the reporter line Jurkat-4-1BB-NFkB-luc carries the same receptor; also called Jurkat-4-1BB-NFkB-luc; CD137
T1 sequence (Q07011 24-255): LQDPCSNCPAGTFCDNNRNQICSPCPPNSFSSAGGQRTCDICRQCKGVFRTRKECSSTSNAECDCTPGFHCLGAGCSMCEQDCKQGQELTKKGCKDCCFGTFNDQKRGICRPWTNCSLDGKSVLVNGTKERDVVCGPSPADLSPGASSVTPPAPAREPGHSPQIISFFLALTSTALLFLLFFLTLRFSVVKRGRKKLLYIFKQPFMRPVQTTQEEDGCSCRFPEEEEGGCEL
Experiment: FACS on Jurkat-4-1BB cells

| binding result | Binder |
| --- | --- |
| binds | B1 |
| binds | B2 |
| binds | B3 |
| binds | B4 |
| binds | B5 |
| binds | B6 |
| binds | B7 |
| binds | B8 |
| binds | B9 |
| binds | B10 |
| binds | B11 |
| binds | B12 |

Molecular target: T2, 4-1BB-ECD-hFc (human, UniProt Q07011 24-186)
T2 construct: extracellular domain; Coated on the ELISA plate; also called 4-1BB-hFc; 4-1BB-hFc蛋白; not shown: human Fc (hFc)
Experiment: ELISA, method as in Example 1

| binding result | Binder |
| --- | --- |
| binds | B5 |
| binds | B7 |
| binds | B10 |
| binds | B12 |

Molecular target: T2, 4-1BB-ECD-hFc
Experiment: ELISA, 4-1BB-ECD-hFc coated

| binding result | Binder |
| --- | --- |
| binds | B1 |
| binds | B2 |
| binds | B3 |
| binds | B4 |
| binds | B6 |
| binds | B8 |
| binds | B9 |
| binds | B11 |
